PMC11216177

Target: H4K20R recombinant nucleosomes containing FLAG-tagged H2A and H4K20R
Assay: pull-down

fold binding to H4K20R nucleosomes relative to WT nucleosomes | fold binding to H4K20R nucleosomes compared with WT nucleosomes | Binder
14.5 fold | – | Set8 (enzyme) MIMVRRRQRPAKEAASSSSGGASSGSGIPVDQALPLNVAGNLLEDQYFASPKRKDCRLMKVTQNGQLPEATMMAHNKDNKAGRTIGVPLATRSQTRTIENFFKANAAAKDSQKTIHTEEQLNLGNQELKLDDEELNGQIKLDDEVLKLADKQINENLPFADEVDAKAEQKLMDEELQQVVEELLFDGSSRASSNSPFYQHDMDVMQEIQQTPEIPHIKKVTEPLEGLGSLADFQTHRSALRDSHSSTHSSSTDNIFLQEPVLTLDIDRTPTKASSIKINRSFELAGAVFSSPPSVLNACLNGRFNQIVSLNGQKEALDLPHFDLDQHDSSSCDSGVACGLTANTESPAGQPRRRKPATPHRILCPSPIKTALKVTGGICKVGSADPLSPRKSPRKLPTTTAAVAACKSRRRLNQPKPQAPYQPQLQKPPSQQQQQQQDDIVVVLDDDDDEGDDEDDVRALIKAAEERENQNKAPATANSNKAGMKTMLKPAPVKSKTKSKGPTKGQPPLPLAATNGNREMTDFFPVRRSVRKTKTAVKEEWMRGLEQAVLEERCDGLQVRHFMGKGRGVVADRPFKRNEFVVEYVGDLISIGEAAEREKRYALDENAGCYMYYFKHKSQQYCIDATVDTGKLGRLINHSRAGNLMTKVVLIKQRPHLVLLAKDDIEPGEELTYDYGDRSKESLLHHPWLAF
– | 1.8 fold | GFP-L(3)mbt (natural protein) MMALKMLYRGPSSRLENLIEKIQATKEITNNDMYSTHTSSSYSPSISDGTMTPNSHHLIGAPTAAGQEDHPTEGKINGGADGEDLPKPKRLPHFHHHHHHHYHHQQALKIANKLRKINKEAKMGATAGGGATGAASKFDKLTGEGIKSRGDGSYQCQFCEKTFPRLGYLKHHVQSHAEHLPFKCEYCSKLFKHKRSRDRHKKLHTNERNYKCPHCEAAFSRSDHLKIHMKTHDIQKPFQCSMCNRGYNTAAALTSHMQKHKKNAAILAAGGNPNALNYSPRSTGSASASVSSNGSLQKRRYALALASDSSPSRMDFPKRSRSNHVGGTTTTATPTPLLRCSYCPKVTEFSSLEQLNAHLQSVHEQPQTQAVKTPVQEGEGFQLSCEYCTMKFGNIAGLFQHMRSTHMDRLSSPNSYYEHFNRLATAGTFSPRLALDLPKIKPDLGSPERESRPAEDDLPTDLSNNKRRPLTPNPQAQTPLAPPSAPPGVFFCNQCNAGLPDFESFRNHLKSHIAEGMQLVCPHCGMSLPEQSEFERHVVGHFLITGSEFNCSSSCGKSFAKSEDLQQHLLSEHVLTLLKCSLCSELCESRMAMQLHLACAHSQETKLLRCSACLELFRSDAEFHVHVKTRHQLGGHPTLGATSSAPTNPLQCMFCRAVCSSELEMHFHLAAHARQFRCPSCPETFHVEFLLDRHMQSQHGGVKDKEANSPNMGSLYVNALLPPLAAAAAAAAATNNNSSIIDYNVAFKGLFGGASGGAGSGGGGAQSGGAPPSANKFYSPLQVDTNALKAQTSPHPALMYGLSQRYLMEMYAAKSTSPSGNEGVGNSQPPAPQATAPPPPPNASTATFSCGMCERQDLRSEAELHSHRKLAHNLKTGVSLRCAYCAGNFKSRAELEQHMKSCHNSTGKHKCLICDEVFPSPAILAEHKLQHSKVGQSGKCSHCGQPLEDVAAFRAHLSEHGSDGASLPLACICCRQTLHSEFELSLHAKFHTKSSSSGGSLQEPVCALCLEPLPDATEGPAKLCDKCCRKHNLNGKRGKHSEPATSLPAPPSAFVENRCNLCKMILPHAQKLQEHLVEHTFAGTEQRGFNCYICSAVFTAPGGLLNHMGEHGAHSRPYDCNLCPEKFFFRAELEHHQRGHELRPQARPPAAKVEVPSIRNTSPGQSPVRSPTIVKQELYETDTVESAGVEDEPENHPDEEEYIEVEQMPHETRPSGIGSQLERSTSSA
